Source: article PMC314469, “Protein Interaction Networks by Proteome Peptide Scanning” (PLoS Biology, 2004)

T1: Boi1 SH3 (BOI1_YEAST), P38041
T1 chain: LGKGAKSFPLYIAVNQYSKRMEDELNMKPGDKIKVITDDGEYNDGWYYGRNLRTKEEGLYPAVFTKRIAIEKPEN

T2: Yhr016c SH3 (YSC84_YEAST), P32793
T2 chain: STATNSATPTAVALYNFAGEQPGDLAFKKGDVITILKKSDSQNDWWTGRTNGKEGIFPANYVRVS

T3: Yfr024 SH3 (LSB3_YEAST), P43603
T3 chain: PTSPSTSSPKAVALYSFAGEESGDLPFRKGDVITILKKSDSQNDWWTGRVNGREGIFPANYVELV

T4: Boi2 SH3 (BOI2_YEAST), P39969
T4 chain: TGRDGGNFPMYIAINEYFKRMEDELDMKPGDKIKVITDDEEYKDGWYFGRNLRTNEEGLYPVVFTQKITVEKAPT

T5: Rvs167 SH3 (RV167_YEAST), P39743
T5 chain: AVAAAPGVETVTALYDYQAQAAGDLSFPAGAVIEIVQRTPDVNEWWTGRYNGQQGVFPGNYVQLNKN

T6: Myo5 SH3 (MYO5_YEAST), Q04439
T6 chain: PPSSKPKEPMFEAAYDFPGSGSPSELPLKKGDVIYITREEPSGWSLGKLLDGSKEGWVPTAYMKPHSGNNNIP


Key:
Experiment in all cases: SPOT array
[1] = target: T1, Boi1 SH3 (BOI1_YEAST), P38041
[2] = target: T2, Yhr016c SH3 (YSC84_YEAST), P32793
[3] = target: T3, Yfr024 SH3 (LSB3_YEAST), P43603
[4] = target: T4, Boi2 SH3 (BOI2_YEAST), P39969
[5] = target: Sho1 SH3 (SHO1_YEAST), P40073
[6] = target: T5, Rvs167 SH3 (RV167_YEAST), P39743
[7] = target: T6, Myo5 SH3 (MYO5_YEAST), Q04439

Sho1 SH3 (SHO1_YEAST), P40073, sequence (P40073 295-366): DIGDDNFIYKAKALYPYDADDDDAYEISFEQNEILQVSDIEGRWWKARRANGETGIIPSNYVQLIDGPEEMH

Binder	normalised SPOT signal, Boehringer light units (BLU); mean over the file's lines of this peptide [1]	normalised SPOT signal, Boehringer light units (BLU); mean over the file's lines of this peptide [2]	normalised SPOT signal, Boehringer light units (BLU); mean over the file's lines of this peptide [3]	normalised SPOT signal, Boehringer light units (BLU); mean over the file's lines of this peptide [4]	normalised SPOT signal, Boehringer light units (BLU); mean over the file's lines of this peptide [5]	normalised SPOT signal, Boehringer light units (BLU); mean over the file's lines of this peptide [6]	normalised SPOT signal, Boehringer light units (BLU); mean over the file's lines of this peptide [7]
HEVPKRSPEKPSNP [YNL278W 806-819]	91.8	61.8	148	2.4	64.4	46.4	172
HFNTKKIPELPSQF [YML051W 376-389]	118	4.9	204	35.7	1960	235	467
HFPSRSQPSDPKLQ [YKR028W 906-919]	91.5	32.6	294	17.7	321	68.1	258
HISDKMNPASPQYF [YDR266C 250-263]	113	27.4	161	18.2	115	30.3	159
HILEKYSPFDPSGR [YPL148C 31-44]	26.1	34.1	82.7	19.3	89.5	15.9	166
HKFVKSSPVVPFDD [YOR335C 27-40]	247	40.3	122	7.2	53.1	153	151
HLLGKEGPSAPNPS [YNL287W 476-489]	89	39.7	14.5	22.1	69.5	49.5	124
